B1: MKK7 D-site peptide (second D-site) / JNK1 alpha1 (MAPK8 isoform 1) L198A, full length (parent complex)
chain 1: SQPQRPRPTLQLPLANEAFEQP
chain 2: MSRSKRDNNFYSVEIGDSTFTVLKRYQNLKPIGSGAQGIVCAAYDAILERNVAIKKLSRPFQNQTHAKRAYRELVLMKCVNHKNIIGLLNVFTPQKSLEEFQDVYIVMELMDANLCQVIQMELDHERMSYLLYQMLCGIKHLHSAGIIHRDLKPSNIVVKSDCTLKILDFGLARTAGTSFMMTPYVVTRYYRAPEVIAGMGYKENVDLWSVGCIMGEMVCHKILFPGRDYIDQWNKVIEQLGTPCPEFMKKLQPTVRTYVENRPKYAGYSFEKLFPDVLFPADSEHNKLKASQARDLLSKMLVIDASKRISVDEALQHPYINVWYDPSEAEAPPPKIPDKQLDEREHTIEEWKELIYKEVMDLEERTKNGVIRGQPSPLAQVQQ
B2: MKK6 D-site peptide / p38-alpha (MAPK14) L195A, full length (parent complex)
chain 1: SQSKGKKRNPGLKIPKEAFEQP
chain 2: MSQERPTFYRQELNKTVWEVPERYQNLSPVGSGAYGSVCAAFDTKTGHRVAVKKLSRPFQSIIHAKRTYRELRLLKHMKHENVIGLLDVFTPARSLEEFNDVYLVTHLMGADLNNIVKCQKLTDDHVQFLIYQILRGLKYIHSADIIHRDLKPSNLAVNEDCELKILDFGLARHTDDEMTGYVATRWYRAPEIMANWMHYNQTVDIWSVGCIMAELLTGRTLFPGTDHIDQLKLILRLVGTPGAELLKKISSESARNYIQSLAQMPKMNFANVFIGANPLAVDLLEKMLVLDSDKRITAAQALAHAYFAQYHDPDDEPVAEPYDQSFESRDFLIDEWKSLTYDEVISFVPPPLDQEEMES

Variants of: B1

Variant | screen value
chain 1 P13K | 1.72 Z-score of the enrichment rate within one screen of 711 sequences
chain 1 L14H | 0.415 Z-score of the enrichment rate within one screen of 711 sequences
chain 1 P6M | 1.27 Z-score of the enrichment rate within one screen of 711 sequences
chain 1 P13G | 0.542 Z-score of the enrichment rate within one screen of 711 sequences
chain 1 T9A, chain 1 P13A | 0.848 Z-score of the enrichment rate within one screen of 711 sequences
chain 1 P6K | 1.52 Z-score of the enrichment rate within one screen of 711 sequences
chain 1 P3W | 1.63 Z-score of the enrichment rate within one screen of 711 sequences
chain 1 P3A, chain 1 Q11A | 1.08 Z-score of the enrichment rate within one screen of 711 sequences
chain 1 P6A, chain 1 L14A | 0.556 Z-score of the enrichment rate within one screen of 711 sequences
chain 1 R5L | 0.573 Z-score of the enrichment rate within one screen of 711 sequences
chain 1 P3A, chain 1 L12A | -0.854 Z-score of the enrichment rate within one screen of 711 sequences
chain 1 P6A, chain 1 L10A | -0.724 Z-score of the enrichment rate within one screen of 711 sequences
chain 1 L10C | -0.173 Z-score of the enrichment rate within one screen of 711 sequences
chain 1 A15N | 1.48 Z-score of the enrichment rate within one screen of 711 sequences
chain 1 A15D | 1.08 Z-score of the enrichment rate within one screen of 711 sequences
chain 1 L14P | 0.76 Z-score of the enrichment rate within one screen of 711 sequences
chain 1 L12Q | -0.624 Z-score of the enrichment rate within one screen of 711 sequences
chain 1 Q4A, chain 1 N16A | 1.68 Z-score of the enrichment rate within one screen of 711 sequences
chain 1 L12A, chain 1 L14A | -0.584 Z-score of the enrichment rate within one screen of 711 sequences
chain 1 P8A | 0.456 Z-score of the enrichment rate within one screen of 711 sequences
chain 1 Q11P | 0.901 Z-score of the enrichment rate within one screen of 711 sequences
chain 1 Q4V | 1.56 Z-score of the enrichment rate within one screen of 711 sequences

Variant | screen value
chain 1 R5S | 0.06 Z-score of the enrichment rate within one screen of 711 sequences
chain 1 Q4C | 1.41 Z-score of the enrichment rate within one screen of 711 sequences
chain 1 P3A, chain 1 T9A | 0.956 Z-score of the enrichment rate within one screen of 711 sequences
chain 1 T9A, chain 1 L10A | -0.519 Z-score of the enrichment rate within one screen of 711 sequences
chain 1 Q11F | 2.16 Z-score of the enrichment rate within one screen of 711 sequences
chain 1 P6A, chain 1 R7A | 0.187 Z-score of the enrichment rate within one screen of 711 sequences
chain 1 L14Y | 0.328 Z-score of the enrichment rate within one screen of 711 sequences
chain 1 P8E | 0.296 Z-score of the enrichment rate within one screen of 711 sequences
chain 1 P3Q | 1.24 Z-score of the enrichment rate within one screen of 711 sequences
chain 1 P6N | 1.28 Z-score of the enrichment rate within one screen of 711 sequences
chain 1 L12G | -0.442 Z-score of the enrichment rate within one screen of 711 sequences
chain 1 L10A, chain 1 Q11A | -0.534 Z-score of the enrichment rate within one screen of 711 sequences
chain 1 Q4K | 1.91 Z-score of the enrichment rate within one screen of 711 sequences
chain 1 N16Q | 1.61 Z-score of the enrichment rate within one screen of 711 sequences
chain 1 P6Y | 0.933 Z-score of the enrichment rate within one screen of 711 sequences
chain 1 N16S | 1.15 Z-score of the enrichment rate within one screen of 711 sequences
chain 1 P6A, chain 1 P13A | 0.914 Z-score of the enrichment rate within one screen of 711 sequences
chain 1 Q4D | 0.92 Z-score of the enrichment rate within one screen of 711 sequences
chain 1 Q11A | 1.44 Z-score of the enrichment rate within one screen of 711 sequences
chain 1 P13M | 1.22 Z-score of the enrichment rate within one screen of 711 sequences
chain 1 R5Y | 0.459 Z-score of the enrichment rate within one screen of 711 sequences
chain 1 Q11S | 1.45 Z-score of the enrichment rate within one screen of 711 sequences

Variants of: B2

Variant | screen value
chain 1 K7V | 0.633 Z-score of the enrichment rate within one screen of 711 sequences
chain 1 G11A, chain 1 K16A | 0.278 Z-score of the enrichment rate within one screen of 711 sequences
chain 1 I14G | -1.29 Z-score of the enrichment rate within one screen of 711 sequences
chain 1 G5A, chain 1 K7A | 0.268 Z-score of the enrichment rate within one screen of 711 sequences
chain 1 R8A, chain 1 G11A | -0.109 Z-score of the enrichment rate within one screen of 711 sequences
chain 1 I14S | -1.38 Z-score of the enrichment rate within one screen of 711 sequences
chain 1 K16D | -0.827 Z-score of the enrichment rate within one screen of 711 sequences
chain 1 K6R | 1.9 Z-score of the enrichment rate within one screen of 711 sequences
chain 1 K4H | 0.888 Z-score of the enrichment rate within one screen of 711 sequences
chain 1 K16I | 1.8 Z-score of the enrichment rate within one screen of 711 sequences
chain 1 G11R | 1.68 Z-score of the enrichment rate within one screen of 711 sequences
chain 1 L12K | -1.3 Z-score of the enrichment rate within one screen of 711 sequences
chain 1 N9H | 1.51 Z-score of the enrichment rate within one screen of 711 sequences
chain 1 G11A | 1.13 Z-score of the enrichment rate within one screen of 711 sequences
chain 1 N9A, chain 1 P10A | 0.315 Z-score of the enrichment rate within one screen of 711 sequences
chain 1 S3A, chain 1 K13A | -0.319 Z-score of the enrichment rate within one screen of 711 sequences

Variant | screen value
chain 1 N9A, chain 1 G11A | 1.02 Z-score of the enrichment rate within one screen of 711 sequences
chain 1 L12F | -0.853 Z-score of the enrichment rate within one screen of 711 sequences
chain 1 G11M | 1.24 Z-score of the enrichment rate within one screen of 711 sequences
chain 1 K4V | 0.981 Z-score of the enrichment rate within one screen of 711 sequences
chain 1 S3N | 1.29 Z-score of the enrichment rate within one screen of 711 sequences
chain 1 R8Y | 0.157 Z-score of the enrichment rate within one screen of 711 sequences
chain 1 G5W | 4.45 Z-score of the enrichment rate within one screen of 711 sequences
chain 1 S3P | 1.6 Z-score of the enrichment rate within one screen of 711 sequences
chain 1 L12V | -0.424 Z-score of the enrichment rate within one screen of 711 sequences
chain 1 I14P | -0.823 Z-score of the enrichment rate within one screen of 711 sequences
chain 1 K13F | 0.119 Z-score of the enrichment rate within one screen of 711 sequences
chain 1 P10C | 0.201 Z-score of the enrichment rate within one screen of 711 sequences
chain 1 L12N | -1.37 Z-score of the enrichment rate within one screen of 711 sequences
chain 1 R8A, chain 1 I14A | -0.878 Z-score of the enrichment rate within one screen of 711 sequences
chain 1 I14W | -0.82 Z-score of the enrichment rate within one screen of 711 sequences
